Source: IntAct's records for PubMed 40475291

B1: Patched domain-containing protein 1 (Mus musculus), Q14B62 (parent)
chain: MLRQVLHRGLRTCFSRLGHFIASHPVFFASAPVLISILLGASFSRYQVEESVEHLLAPQHSLAKIERNLVNSLFPVNRSKHRLYSDLQTPGRYGRVIVTSYQKANMLDQHHTDLILKLHTAVTKIQVPRPGFNYTFAHICVLNNDKTCIVDDIVHVLEELKNARATNRTNFAITYPITHLKDGRAVYNGHQLGGVTVHSKDRVKSAEAIQLTYYLQSINSLNDMVAERWESSFCDTVKLFQKSNSKVKIYPYTSSSLREDFQKTSRVSERYLVTSLILVVTMAILCCSMQDCVRSKPWLGLLGLVTISLATLTAAGIINLTGGKYNSTFLGVPFVMLGHGLYGTFEMLSSWRKTREDQHVKERTAEVYADSMLSFSLTTAMYLVTFGIGASPFTNIEAARIFCCNSCIAILFNYLYVLSFYGSSLVFTGYIENNYQHSIFCRKVPKPDVLQEKPAWYRFLLTARFSEETAEGEEANTYESHLLVCFLKRYYCDWITNTYVKPFVVLFYLIYISFALMGYLQVSEGSDLSNIVATATQTIEYTTAHQKYFNNYSPVIGFYIYESIEYWNSSVQEDVLEYTKGFVRISWFESYLNYLRKLNVSTDLPKKNFTDMLRNSFLKTPQFSHFQEDIIFSKKYNDEVDVVASRMFLVAKTMETNREELYDLLETLRRLSVTSKVKFIVFNPSFVYMDRYASSLGAPLHNSCISALFLLFFSAFLVADSLINVWITLTVVSVEFGVIGFMTLWKVELDCISVLCLIYGINYTIDNCAPLLSTFVLGKDFTRTKWVKNALEVHGVAILQSYLCYIVGLFPLAAVPSNLTCTLFRCLFLIAFVTFFHCFAILPVILTFLPPSKKKRKEKKNPENREEIECVEMVDIDSTRVVDQITTV
partner: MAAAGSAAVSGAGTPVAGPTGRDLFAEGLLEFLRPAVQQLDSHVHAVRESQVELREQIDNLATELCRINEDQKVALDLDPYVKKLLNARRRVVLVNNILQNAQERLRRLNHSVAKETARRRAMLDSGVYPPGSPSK

Variants of: B1
Details: with snapn_mouse Snapin

| Variant | effect of a mutation on the interaction |
| --- | --- |
| K181T | decreasing interaction strength |
| V150M | with no effect |
| S51N | with no effect |
| L73F | with no effect |
| Y213C | decreasing interaction strength |
| Q102R | with no effect |
| D527E | increasing interaction strength |
| V195I | decreasing interaction strength |
| T602A | increasing interaction strength |
| P75L | decreasing interaction strength |
| P75Q | decreasing interaction strength |
| F549C | increasing interaction strength |
